Experimental data taken from US20200048631.

What was measured:
Gal4-VP16 = experiment: cell_activity; settings: 0.5 ug Gal4 plasmid, no tTA
[1] = tested on: tTA (tetracycline transactivator, TetR-VP16); experiment: cell_activity; settings: 0.5 ug tTA plasmid, no Gal4
[2] = 0.1 without TF, 16.0 with both TFs at 0.5 ug

Substance: H2 hybrid promoter pT2U3 (TetO and UAS, CMV minimal promoter)
- activity (Gal4-VP16; [2]): 4 % ON cells
- activity [1, 2]: 0.8 % ON cells

Substance: H1 hybrid promoter pT2U2T2U2 (TetO and UAS, CMV minimal promoter)
- activity (Gal4-VP16; <0.1 without TF, HEK293FT, synergy with tTA): 9.2 % ON cells
- activity ([1]; <0.1 without TF, HEK293FT, synergy with Gal4): 3.1 % ON cells
